In US20130216549A1 one finds Calcium flux IC50 (nM); 10 nM hIP-10 and Chemotaxis IC50 (nM); 1 nM hIP-10 data, which are given here for one molecule.

The target in the assay is recombinant human IP-10 (Peprotech) (human) (UniProt P02778). Put plainly: cell-based or functional assay.
Sequence of recombinant human IP-10 (Peprotech) (human) (P02778 22-98 limits assumed): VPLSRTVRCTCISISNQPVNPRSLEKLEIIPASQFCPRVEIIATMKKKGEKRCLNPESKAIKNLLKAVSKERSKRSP

B1: CC21R3P5_C5 (scFv format) (scFv, part only; not given: scFv linker, part only)
scFv, part: QVQLVQSGGGVVQPGRSLRLSCAASGFTFSTYGMHWVRQAPGKGLEWVAVISYDGGTKYYADSVKGRFTISRDNSMKTLYLQMNSLRTEDTAVYYCAKDLGDLPPGLDYWGRGTMVTVSSCHEMICALLYSYNTHESIZEDSYELTQPPSVSVALGQTATITCGGSSIESKSVHWYQEKPGQAPVLVIYKDSNRPSVIPERFSGSNSGNTATLTIGRAQAGDEADYYCQVWDSSTGVVFGGGTKLTVL
Turning to B1, the Calcium flux IC50 (nM); 10 nM hIP-10 came to 89 nM and the Chemotaxis IC50 (nM); 1 nM hIP-10 is 90 nM.
